One experiment deals with T1, gTAX/HLA-A*02:01 (Homo sapiens, UniProt P04439, D140Y/D185E/D98H/E176V/E277Q/G131W/G231S/I119V/I121R/I166T/I218V/L300P/L318F/N151K/N90K/P208A/P217A/Q86G/Q94H/R138H/R169H/T345S).
T1 construct: Plasmid DNA encoding the luminal domain of class I MHC (MHC-I) heavy chain HLA-A*02:01; made in house; Drosophila S2 cells (TAPBPR); gTAX synthetic (Genscript)
The experiment can be described thus: Native gel electrophoresis of TAPBPR-catalysed peptide exchange on gTAX/HLA-A*02:01 (Example 1). It counts as biochemical. The conditions noted are these: overnight incubation, 10-fold molar excess of peptide, with TAPBPR.
As for “YPNVNIHNF [non-specific peptide, non-specific gp29 peptide used as a negative control]”, the “peptide exchange on gTAX/HLA-A*02:01 (native gel)” value was “no exchange was observed”.

The target of a further experiment is T2, HLA-A*02:01 (Homo sapiens, UniProt P04439, D140Y/D185E/D98H/E176V/E277Q/G131W/G231S/I119V/I121R/I166T/I218V/L300P/L318F/N151K/N90K/P208A/P217A/Q86G/Q94H/R138H/R169H/T345S).
T2 construct: Plasmid DNA encoding the BirA tagged luminal domain of MHC-I heavy chains HLA-A*02:01; made in house; Drosophila S2 cells (TAPBPR); gTAX synthetic (Genscript)
Assay: not given
It counts as binding.
Settings: not given
For the sequence TLMNVLTLV [Peptide 15], the Tm came to 61.2 ± 0.6 °C. Same read-out and setting: for VVFLHVTYV [Peptide 17] the value was 52.3 ± 0.0 °C; for TLACFVLAAV [Peptide 12], 53.3 ± 0.6 °C.

The experiment is the same for the next values; noted with them: p/HLA-A*02:01 prepared by TAPBPR-mediated peptide exchange, 10-fold molar excess of peptide, overnight 4° C.; DSF first derivative; ± SD of 3 replicates.
Consider LQLPQGTTL [Peptide 28], for which the Tm stood at 44.4 ± 1.1 °C.

For the sequence SLPGVFCGV [Peptide 11], the Tm is 59.3 ± 0.0 °C.

GLIAIVMVTI [Peptide 23]: the Tm came to 40.4 ± 0.6 °C. Still for that read-out and setting: the figure for VLNDILSRL [Peptide 2] is 50.3 ± 0.0 °C; for GMSRIGMEV [Peptide 8] it is 48.3 ± 0.0 °C; for LLLQYGSFC [Peptide 31] it is 47.3 ± 0.6 °C. Same read-out and setting: for WLMWLIINL [Peptide 9] the value was 42.4 ± 4.0 °C; for SIIAYTMSL [Peptide 14], 53.3 ± 0.6 °C; for LALLLLDRL [Peptide 27], 43.3 ± 1.5 °C. Still for that read-out and setting: for TTLPKGFYA [Peptide 32] the value was 46.3 ± 0.6 °C; for LLLLDRLNQL [Peptide 22], 42.4 ± 0.6 °C. Turning to VLQLPQGTTL [Peptide 21], the Tm was found to be 39.4 ± 0.0 °C. On the same count and under the same terms, the figure for RLNEVAKNL [Peptide 3] is 46.3 ± 0.6 °C; for KLPDDFTGCV [Peptide 13] it is 53.3 ± 0.0 °C; for ALNTLVKQL [Peptide 1] it is 48.3 ± 0.6 °C. Still for that read-out and setting: the figure for GLMWLSYFI [Peptide 6] is 41.4 ± 7.9 °C. Take ILLNKHIDA [Peptide 16]: the Tm was 43.4 ± 0.0 °C. Take ILLLDQALV [Peptide 10]: the Tm was 52.3 ± 0.0 °C. Still for that read-out and setting: the figure for ALNTPKDHI [Peptide 26] is 44.4 ± 0.6 °C; for LLLDRLNQL [Peptide 7] it is 54.3 ± 0.6 °C; for NLNESLIDL [Peptide 4] it is 47.3 ± 0.6 °C. The same measure, in the same setting: for IITTDNTFV [Peptide 24] the value was 42.4 ± 0.6 °C. Same read-out and setting: the figure for SMWALIISV [Peptide 25] is 52.3 ± 0.6 °C; for LITGRLQSL [Peptide 29] it is 44.4 ± 0.6 °C.

The target of a further experiment is T2, HLA-A*02:01.
Assay: not given
Particulars: p*MHC-I/gTAX incubated with peptide and TAPBPR, 12% native gel. It counts as binding.
Turning to “YPNVNIHNF [non-specific peptide, non-specific gp29 peptide used as a negative control]”, the “band of exchanged pMHC-I on native gel” value is “no condensed band”.

For the origin of these results see patent US20210371498A1, “MHC CLASS I COMPOSITIONS AND METHODS” (priority 2020, published 2021).
